The supplement of paper PMC10567573

B1: CDS2 (parent)
chain: LIVVTQSHLVIHNLFEGMIWFIVP
B2: ISL2 (parent)
chain: HYPFLGAMGDHSKKKPGTAMCVGC

Variants of: B1
Assay: protein stability index of a GFP-peptide fusion (GPS, HEK-293T) (PSI 1-6); higher = more stable
Settings: c terminus: a fixed tail appended
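Also: lentivirally expressed fusions sorted by FACS into six bins by GFP to DsRed ratio, PSI derived from sequencing read proportions per bin multiplied by bin number.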

Question: Which protein stability index does the source give for LIVVTQSHLVIHNLMEGMIWFIVP [F15M] here?
Answer: 4.48

Question: With LIVVTQSHLVIHNLNEGMIWFIVP [F15N] as the variant, how does the protein stability index read?
Answer: 3.64

Question: With LIVVTQSHLVIHNLIEGMIWFIVP [F15I] as the variant, how does the protein stability index read?
Answer: 3.58

Question: For LIVVTQSHLVIHNLEEGMIWFIVP [F15E], which protein stability index is on record?
Answer: 2.13

Question: With LIVVTQSHLVIHNLVEGMIWFIVP [F15V] as the variant, how does the protein stability index read?
Answer: 2.72

Question: For LIVVTQSHLVIHNLREGMIWFIVP [F15R], which protein stability index is on record?
Answer: 2.03

Question: With LIVVTQSHLVIHNLSEGMIWFIVP [F15S] as the variant, how does the protein stability index read?
Answer: 3.64

Question: With LIVVTQSHLVIHPLFEGMIWFIVP [N13P] as the variant, how does the protein stability index read?
Answer: 3.48

Question: For LIVVTQSHLVIHHLFEGMIWFIVP [N13H], which protein stability index is on record?
Answer: 1.83

Question: With LIVVTQSHLVIHCLFEGMIWFIVP [N13C] as the variant, how does the protein stability index read?
Answer: 3.03

Question: For LIVVTQSHLVIHYLFEGMIWFIVP [N13Y], which protein stability index is on record?
Answer: 2.44

Question: With LIVVTQSHLVIHDLFEGMIWFIVP [N13D] as the variant, how does the protein stability index read?
Answer: 2.63

Question: Which protein stability index does the source give for LIVVTQSHLVIHTLFEGMIWFIVP [N13T] here?
Answer: 1.61

Question: For LIVVTQSHLVIHILFEGMIWFIVP [N13I], which protein stability index is on record?
Answer: 4.67

Question: Which protein stability index does the source give for LIVVTQSHLVIHGLFEGMIWFIVP [N13G] here?
Answer: 2.9

Question: For LIVVTQSHKVIHNLFEGMIWFIVP [L9K], which protein stability index is on record?
Answer: 3.33

Question: Which protein stability index does the source give for LIVVTQSHNVIHNLFEGMIWFIVP [L9N] here?
Answer: 2.36

Question: Which protein stability index does the source give for LIVVTQSHRVIHNLFEGMIWFIVP [L9R] here?
Answer: 2.9

Question: For LIVVTQSHTVIHNLFEGMIWFIVP [L9T], which protein stability index is on record?
Answer: 3.82

Question: Which protein stability index does the source give for LIVVTQSHHVIHNLFEGMIWFIVP [L9H] here?
Answer: 1.56

Question: With LIVVTQSHVVIHNLFEGMIWFIVP [L9V] as the variant, how does the protein stability index read?
Answer: 2.3

Question: For LIVVTQSHYVIHNLFEGMIWFIVP [L9Y], which protein stability index is on record?
Answer: 2.24

Question: For LIVVTQSHAVIHNLFEGMIWFIVP [L9A], which protein stability index is on record?
Answer: 2.29

Question: Which protein stability index does the source give for LIVVTQSHDVIHNLFEGMIWFIVP [L9D] here?
Answer: 2.62

Question: Which protein stability index does the source give for LSVVTQSHLVIHNLFEGMIWFIVP [I2S] here?
Answer: 2.69

Question: With LLVVTQSHLVIHNLFEGMIWFIVP [I2L] as the variant, how does the protein stability index read?
Answer: 3.84

Question: Which protein stability index does the source give for LGVVTQSHLVIHNLFEGMIWFIVP [I2G] here?
Answer: 2.41

Question: For LRVVTQSHLVIHNLFEGMIWFIVP [I2R], which protein stability index is on record?
Answer: 3.79

Question: For LTVVTQSHLVIHNLFEGMIWFIVP [I2T], which protein stability index is on record?
Answer: 2.77

Question: For LDVVTQSHLVIHNLFEGMIWFIVP [I2D], which protein stability index is on record?
Answer: 1.02

Question: Which protein stability index does the source give for LVVVTQSHLVIHNLFEGMIWFIVP [I2V] here?
Answer: 3.01

Question: For LIVVTQSHLVIHNLFEGMIWFIYP [V23Y], which protein stability index is on record?
Answer: 3.02

Question: With LIVVTQSHLVIHNLFEGMIWFINP [V23N] as the variant, how does the protein stability index read?
Answer: 2.51

Question: With LIVVTQSHLVIHNLFEGMIWFIIP [V23I] as the variant, how does the protein stability index read?
Answer: 2.9

Question: For LIVVTQSHLVIHNLFEGMIWFIAP [V23A], which protein stability index is on record?
Answer: 2.36

Question: Which protein stability index does the source give for LIVVTQSHLVIHNLFEGMIWFITP [V23T] here?
Answer: 3.31

Question: Which protein stability index does the source give for LIVVTQSHLVIHNLFEGMIWFICP [V23C] here?
Answer: 3.47

Question: Which protein stability index does the source give for LIVVTQSHLVIHNLFEGMIWFIFP [V23F] here?
Answer: 4.17

Question: For LIVVTQSHLVIHNLFEGMIWFIDP [V23D], which protein stability index is on record?
Answer: 3.03

Question: Which protein stability index does the source give for LIVVTQSHLVIHNLFEGMIWFIQP [V23Q] here?
Answer: 1.52

Question: With LIVVTQSHLVIHNLFEGMIWNIVP [F21N] as the variant, how does the protein stability index read?
Answer: 3.24

Question: Which protein stability index does the source give for LIVVTQSHLVIHNLFEGMIWSIVP [F21S] here?
Answer: 2.8

Question: Which protein stability index does the source give for LIVVTQSHLVIHNLFEGMIWWIVP [F21W] here?
Answer: 1.6

Question: With LIVVTQSHLVIHNLFEGMIWLIVP [F21L] as the variant, how does the protein stability index read?
Answer: 3.42

Question: For LIVVTQSHLVIHNLFEGMIWGIVP [F21G], which protein stability index is on record?
Answer: 2.49

Question: For LIVVTQSHLVIHNLFEGMIWYIVP [F21Y], which protein stability index is on record?
Answer: 2.52

Question: With LIVVTQSHLVIHNLFEGMIWTIVP [F21T] as the variant, how does the protein stability index read?
Answer: 3.04

Question: With LIVVTQSHLVIHNLFEGMIWKIVP [F21K] as the variant, how does the protein stability index read?
Answer: 4.85

Question: Which protein stability index does the source give for LIVVTQSHLVIHNLFEGMIWRIVP [F21R] here?
Answer: 2.94

Question: With LIVVTQSHLVIDNLFEGMIWFIVP [H12D] as the variant, how does the protein stability index read?
Answer: 3.58

Question: With LIVVTQSHLVILNLFEGMIWFIVP [H12L] as the variant, how does the protein stability index read?
Answer: 3.7

Question: For LIVVTQSHLVIRNLFEGMIWFIVP [H12R], which protein stability index is on record?
Answer: 1.5

Question: For LIVVTQSHLVICNLFEGMIWFIVP [H12C], which protein stability index is on record?
Answer: 3.91

Question: With LIVVTQSHLVIMNLFEGMIWFIVP [H12M] as the variant, how does the protein stability index read?
Answer: 2.67

Question: For LIVVTQSHLVIHNLFAGMIWFIVP [E16A], which protein stability index is on record?
Answer: 4.16

Question: With LIVVTQSHLVIHNLFPGMIWFIVP [E16P] as the variant, how does the protein stability index read?
Answer: 2.48

Question: With LIVVTQSHLVIHNLFLGMIWFIVP [E16L] as the variant, how does the protein stability index read?
Answer: 4.5

Question: Which protein stability index does the source give for LIVVTQSHLVIHNLFTGMIWFIVP [E16T] here?
Answer: 2.83

Question: With LIVVTQSHLVIHNLFMGMIWFIVP [E16M] as the variant, how does the protein stability index read?
Answer: 3.76

Question: For LIVVTQSHLVIHNLFDGMIWFIVP [E16D], which protein stability index is on record?
Answer: 3.44

Question: Which protein stability index does the source give for FIVVTQSHLVIHNLFEGMIWFIVP [L1F] here?
Answer: 3.17

Question: With DIVVTQSHLVIHNLFEGMIWFIVP [L1D] as the variant, how does the protein stability index read?
Answer: 3.86

Question: With MIVVTQSHLVIHNLFEGMIWFIVP [L1M] as the variant, how does the protein stability index read?
Answer: 3.16

Question: For NIVVTQSHLVIHNLFEGMIWFIVP [L1N], which protein stability index is on record?
Answer: 2.67

Question: With LIVVTQSCLVIHNLFEGMIWFIVP [H8C] as the variant, how does the protein stability index read?
Answer: 3.31

Question: For LIVVTQSWLVIHNLFEGMIWFIVP [H8W], which protein stability index is on record?
Answer: 2.77

Question: With LIVVTQSDLVIHNLFEGMIWFIVP [H8D] as the variant, how does the protein stability index read?
Answer: 4.35

Question: For LIVVTQSFLVIHNLFEGMIWFIVP [H8F], which protein stability index is on record?
Answer: 3.38

Question: With LIVVTQSELVIHNLFEGMIWFIVP [H8E] as the variant, how does the protein stability index read?
Answer: 2.35

Question: With LIVVTQSRLVIHNLFEGMIWFIVP [H8R] as the variant, how does the protein stability index read?
Answer: 2.81

Variants of: B2
Assay: as above
Settings: c terminus: a fixed tail appended

Question: With HYPFLGAMGDHSKKKPGTAMCVYC [G23Y] as the variant, how does the protein stability index read?
Answer: 1.69

Question: With HYPFLGAMGDHSKKKPGTAMCVWC [G23W] as the variant, how does the protein stability index read?
Answer: 1.85

Question: For HYPFLGAMGDHSKKKPGTAMCVTC [G23T], which protein stability index is on record?
Answer: 2.96

Question: With HYPFLGAMGDHSKKKPGTAMCVSC [G23S] as the variant, how does the protein stability index read?
Answer: 2.76

Question: For HYPFLGAMGDHSKKKPGTAMCVVC [G23V], which protein stability index is on record?
Answer: 2.28

Question: For HYPFLGAMGDHSKKKPGTAMCVGT [C24T], which protein stability index is on record?
Answer: 2.83

Question: Which protein stability index does the source give for HYPFLGAMGDHSKKKPGTAMCVGN [C24N] here?
Answer: 3.64

Question: With HYPFLGAMGDHSKKKPGTAMCVGH [C24H] as the variant, how does the protein stability index read?
Answer: 3.42

Question: Which protein stability index does the source give for HYPFLGAMGDHSKKKPGTAMCVGV [C24V] here?
Answer: 3.24

Question: Which protein stability index does the source give for HYPFLGAMGDHSKKKPGTAMCVGE [C24E] here?
Answer: 4.5

Question: Which protein stability index does the source give for HYPFLGAMGDHSKKKPGTAMCVGP [C24P] here?
Answer: 3.82

Question: For HYPFLGAMGDHSKKKPGTAMCVGI [C24I], which protein stability index is on record?
Answer: 2.8

Question: With HYPFLGAMGDHSKKKPGTAMCVGY [C24Y] as the variant, how does the protein stability index read?
Answer: 2.75

Question: For HYPFLGAMGDHSKKKPGTAMCVGK [C24K], which protein stability index is on record?
Answer: 4.12

Question: With HYPFLGAMGDHSKKKPGTAMCVGM [C24M] as the variant, how does the protein stability index read?
Answer: 2.52

Question: For HYPFLGAMGDHSKKKPGTAMCVGA [C24A], which protein stability index is on record?
Answer: 3.09

Question: For HYPFLGAMGDHSKKKPGTAMCVGF [C24F], which protein stability index is on record?
Answer: 2.23

Question: With HYPFLGAMGDHSKKKPGTAMCVGW [C24W] as the variant, how does the protein stability index read?
Answer: 1.68

Question: With HYPFLGAMGDHSKKKPGTAMCVGS [C24S] as the variant, how does the protein stability index read?
Answer: 3.46

Question: With HYPFLGAMGDHSKKKPGTAMCVGL [C24L] as the variant, how does the protein stability index read?
Answer: 2.48

Question: Which protein stability index does the source give for HYPFLGAMGDHSKKKPGTAMCVGR [C24R] here?
Answer: 3.52

Question: For HYPFLGAMGDHSKKKPGTAMCVGD [C24D], which protein stability index is on record?
Answer: 4.13

Question: For HYPFLGAMGDHSKKKPGTAMCVGQ [C24Q], which protein stability index is on record?
Answer: 4.02

Question: Which protein stability index does the source give for HYPFLGAMGDHSKKKPGTAMCVGG [C24G] here?
Answer: 3.17
